Where a chain is given by its changes, count along the chain named.
B1: proGH3.3 probe 2 (dsDNA)
DNA 1: ATGTCTGCCCAAAACTAGCCAAAGATTACGTGACCGCGGTCCCTCTTGTCC
DNA 2: GGACAAGAGGGACCGCGGTCACGTAATCTTTGGCTAGTTTTGGGCAGACAT
B2: proGH3.3 probe 2M (dsDNA)
DNA 1: B1 DNA 1 with G38A, G39A, C41A, C42A, C43A, C45A
DNA 2: B1 DNA 2 with G7T, G9T, G10T, G11T, C13T, C14T
B3: proGH3.3 probe 1 (dsDNA)
DNA 1: TCTAACGATAACAAACCGAGCCCACTTTTATGTCGACGTGGAATTTGGCT
DNA 2: AGCCAAATTCCACGTCGACATAAAAGTGGGCTCGGTTTGTTATCGTTAGA
B4: proGH3.3 probe 1M (dsDNA)
DNA 1: B3 DNA 1 with G18A, C21A, C22A, C23A, C25A
DNA 2: B3 DNA 2 with G26T, G28T, G29T, G30T, C33T
B5: proGH3.3 probe 3 (dsDNA)
DNA 1: GACATATCAGTCCCACATGTCTGCCCAAAACTAGCCAAAGATTACGTGACC
DNA 2: GGTCACGTAATCTTTGGCTAGTTTTGGGCAGACATGTGGGACTGATATGTC
B6: proGH3.3 probe 3M (dsDNA)
DNA 1: B5 DNA 1 with G10A, C12A, C13A, C14A, C16A
DNA 2: B5 DNA 2 with G36T, G38T, G39T, G40T, C42T
B7: proGH3.3 probe 4 (dsDNA)
DNA 1: CTATATATTTTTAATATTTAGGTCCCATTAAATCAGTTTGTGATTTCAGA
DNA 2: TCTGAAATCACAAACTGATTTAATGGGACCTAAATATTAAAAATATATAG
B8: proGH3.3 probe 4M (dsDNA)
DNA 1: B7 DNA 1 with G21A, G22A, C24A, C25A, C26A
DNA 2: B7 DNA 2 with G25T, G26T, G27T, C29T, C30T

Key:
[1] = target: T1, AtWRI1 1-302 (UniProt Q6X5Y6 1-302); experiment: EMSA; 15 mM HEPES-KOH pH 7.5, 7.5 mM KCl, 0.5 mM EDTA, 5% glycerol, 2 mM DTT, 1 ug/uL BSA, 0.05 ug/uL poly(dI-dC), 2 fmol/uL probe, ~1 pmol His-TCP20 in 20 uL, room temperature 30 min; conditions: protein: recombinant; tags: N-terminal 6xHis (pNIC28-Bsa4); label: 5' biotin
[2] = target: T2, TCP20 (UniProt Q9LSD5 1-314); experiment: as above; conditions: protein: recombinant; tags: 6xHis (pET41a-6xHis); chain copies: 2; label: 5' biotin
[3] = target: T1, AtWRI1 1-302; experiment: EMSA; equal affinity to probe 2; 15 mM HEPES-KOH pH 7.5, 7.5 mM KCl, 0.5 mM EDTA, 5% glycerol, 2 mM DTT, 1 ug/uL BSA, 0.05 ug/uL poly(dI-dC), 2 fmol/uL probe, ~1 pmol His-TCP20 in 20 uL, room temperature 30 min; conditions: protein: recombinant; tags: N-terminal 6xHis (pNIC28-Bsa4); label: 5' biotin
[4] = target: T1, AtWRI1 1-302; experiment: EMSA; equal affinity to probe 1; 15 mM HEPES-KOH pH 7.5, 7.5 mM KCl, 0.5 mM EDTA, 5% glycerol, 2 mM DTT, 1 ug/uL BSA, 0.05 ug/uL poly(dI-dC), 2 fmol/uL probe, ~1 pmol His-TCP20 in 20 uL, room temperature 30 min; conditions: protein: recombinant; tags: N-terminal 6xHis (pNIC28-Bsa4); label: 5' biotin
[5] = target: T2, TCP20; experiment: EMSA; plus AtWRI1 1-302, 0.53-2.12 pmol (no reduction); 15 mM HEPES-KOH pH 7.5, 7.5 mM KCl, 0.5 mM EDTA, 5% glycerol, 2 mM DTT, 1 ug/uL BSA, 0.05 ug/uL poly(dI-dC), 2 fmol/uL probe, ~1 pmol His-TCP20 in 20 uL, room temperature 30 min; conditions: protein: recombinant; tags: 6xHis (pET41a-6xHis); chain copies: 2; label: 5' biotin
[6] = target: T1, AtWRI1 1-302; experiment: EMSA; equal affinity to probe 3; 15 mM HEPES-KOH pH 7.5, 7.5 mM KCl, 0.5 mM EDTA, 5% glycerol, 2 mM DTT, 1 ug/uL BSA, 0.05 ug/uL poly(dI-dC), 2 fmol/uL probe, ~1 pmol His-TCP20 in 20 uL, room temperature 30 min; conditions: protein: recombinant; tags: N-terminal 6xHis (pNIC28-Bsa4); label: 5' biotin

T2 sequence (Q9LSD5 whole entry): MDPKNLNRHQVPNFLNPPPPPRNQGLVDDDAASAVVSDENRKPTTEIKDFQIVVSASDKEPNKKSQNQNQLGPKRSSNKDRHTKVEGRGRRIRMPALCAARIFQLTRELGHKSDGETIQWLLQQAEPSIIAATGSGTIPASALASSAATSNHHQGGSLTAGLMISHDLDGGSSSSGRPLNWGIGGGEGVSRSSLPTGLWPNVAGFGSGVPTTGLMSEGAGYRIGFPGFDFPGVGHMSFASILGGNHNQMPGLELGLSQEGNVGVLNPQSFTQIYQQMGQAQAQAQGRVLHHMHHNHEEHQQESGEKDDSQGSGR
T1 sequence (Q6X5Y6 1-302): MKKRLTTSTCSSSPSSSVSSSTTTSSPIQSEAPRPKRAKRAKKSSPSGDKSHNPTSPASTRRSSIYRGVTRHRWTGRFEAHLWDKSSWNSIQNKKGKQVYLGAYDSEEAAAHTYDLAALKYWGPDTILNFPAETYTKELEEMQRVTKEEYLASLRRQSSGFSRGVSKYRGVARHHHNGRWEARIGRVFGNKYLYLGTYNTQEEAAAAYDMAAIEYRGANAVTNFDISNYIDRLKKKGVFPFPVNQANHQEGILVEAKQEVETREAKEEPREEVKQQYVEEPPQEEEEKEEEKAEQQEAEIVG

Binder	binding result [1]	binding result [2]	other results
B1	binds	binds	
B2		no binding	binding result [3]: binds
B3	binds	binds	
B4		no binding	binding result [4]: binds
B5	binds		binding result [5]: binds
B6		no binding	binding result [6]: binds
B7			binding result [5]: binds
B8		no binding	

From article PMC8840716, “Functional Antagonism of WRI1 and TCP20 Modulates GH3.3 Expression to Maintain Auxin Homeostasis in Roots”
